Literature values, collected in paper PMC8780439.

How the values were obtained:
[1] = biological target: Synaptotagmin II (Homo sapiens) (UniProt Q8N9I0)
[2] = biological target: Synaptotagmin II (Mus musculus) (UniProt P46097)
[3] = biological target: Synaptotagmin I (Homo sapiens) (UniProt P21579)
UniProt P21579, sequence (P21579 whole entry): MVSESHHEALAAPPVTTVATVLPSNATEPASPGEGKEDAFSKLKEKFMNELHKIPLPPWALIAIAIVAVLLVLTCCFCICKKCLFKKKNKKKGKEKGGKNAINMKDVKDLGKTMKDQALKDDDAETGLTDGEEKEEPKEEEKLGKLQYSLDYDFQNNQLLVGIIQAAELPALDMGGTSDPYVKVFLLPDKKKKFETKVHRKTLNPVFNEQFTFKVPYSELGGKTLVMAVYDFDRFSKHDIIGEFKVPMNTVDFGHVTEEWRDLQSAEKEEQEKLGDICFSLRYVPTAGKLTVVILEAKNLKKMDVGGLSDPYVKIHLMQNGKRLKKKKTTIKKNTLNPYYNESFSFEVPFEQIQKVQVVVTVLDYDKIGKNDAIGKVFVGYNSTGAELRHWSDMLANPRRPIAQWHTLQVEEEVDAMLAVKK

UniProt Q8N9I0, sequence (Q8N9I0 whole entry): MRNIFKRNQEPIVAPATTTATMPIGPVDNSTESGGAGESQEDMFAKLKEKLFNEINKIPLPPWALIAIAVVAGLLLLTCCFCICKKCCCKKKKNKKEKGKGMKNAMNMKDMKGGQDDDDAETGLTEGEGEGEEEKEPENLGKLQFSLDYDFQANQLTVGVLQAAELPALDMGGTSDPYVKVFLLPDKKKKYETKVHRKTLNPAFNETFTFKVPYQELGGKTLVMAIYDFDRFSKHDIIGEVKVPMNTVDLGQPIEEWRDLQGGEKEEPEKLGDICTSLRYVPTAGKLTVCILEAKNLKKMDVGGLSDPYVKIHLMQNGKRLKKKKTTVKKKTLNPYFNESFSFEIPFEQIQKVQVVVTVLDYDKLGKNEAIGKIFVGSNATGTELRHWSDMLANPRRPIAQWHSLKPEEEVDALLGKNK
UniProt P46097, sequence (P46097 whole entry): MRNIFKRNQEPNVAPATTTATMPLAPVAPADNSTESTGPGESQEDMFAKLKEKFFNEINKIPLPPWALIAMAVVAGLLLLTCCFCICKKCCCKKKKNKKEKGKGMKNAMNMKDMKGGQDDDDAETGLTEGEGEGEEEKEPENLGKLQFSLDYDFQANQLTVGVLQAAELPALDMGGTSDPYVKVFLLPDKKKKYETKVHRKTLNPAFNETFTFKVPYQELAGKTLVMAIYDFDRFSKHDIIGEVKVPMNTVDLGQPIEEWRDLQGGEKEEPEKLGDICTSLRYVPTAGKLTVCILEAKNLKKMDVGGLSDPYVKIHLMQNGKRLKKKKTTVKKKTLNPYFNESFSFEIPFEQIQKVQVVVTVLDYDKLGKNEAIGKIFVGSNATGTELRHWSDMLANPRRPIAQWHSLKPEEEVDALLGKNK

For “BoNT/B heavy chain (from UniProt B1INP5)”, the Kd [1] is given as over 20 µM and the Kd [2] is given as 0.13 µM.
In the case of BoNT/B (from UniProt P10844), the Kd [3] is given as over 20 µM.
